Read-outs that look alike come from different tables or passages of the source.
Legend:
[1] = target: Cul5(N), human Cullin5 residues 2-384 (V341R, L345D) after removal of GST (human) (UniProt Q93034)
[2] = target: Cul5(N), human Cullin5 residues 2-384 (V341R, L345D) after removal of GST (human) (UniProt Q93034); test: ITC; one set of sites model
[3] = target: Cul5(N), human Cullin5 residues 2-384 (V341R, L345D) after removal of GST (human) (UniProt Q93034); test: ITC, one set of sites fit of one isotherm with the actual BCvifVF concentration
[4] = target: Cul5(N), human Cullin5 residues 2-384 (V341R, L345D) after removal of GST (human) (UniProt Q93034); test: ITC, 30 C
[5] = target: Cul5(N), human Cullin5 residues 2-384 (V341R, L345D) after removal of GST (human) (UniProt Q93034); remark: listed apart in the source

Chain of Cul5(N), human Cullin5 residues 2-384 (V341R, L345D) after removal of GST (human) (Q93034 other isoform, or with tags, fused parts or gaps V341R L345D V341R L345D): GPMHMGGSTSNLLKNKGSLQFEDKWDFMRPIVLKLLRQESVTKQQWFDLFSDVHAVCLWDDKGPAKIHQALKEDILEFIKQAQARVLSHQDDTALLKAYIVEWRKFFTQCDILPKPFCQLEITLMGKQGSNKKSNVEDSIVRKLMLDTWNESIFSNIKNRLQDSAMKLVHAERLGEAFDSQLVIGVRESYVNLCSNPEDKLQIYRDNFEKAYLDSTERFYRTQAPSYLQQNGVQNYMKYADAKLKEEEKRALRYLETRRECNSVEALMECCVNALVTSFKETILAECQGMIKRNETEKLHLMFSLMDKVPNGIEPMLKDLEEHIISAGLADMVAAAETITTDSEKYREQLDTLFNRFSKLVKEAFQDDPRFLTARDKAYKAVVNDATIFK

Substance	n (ITC binding stoichiometry, one set of sites model) [1]	n (ITC binding stoichiometry) [2]	n (ITC binding stoichiometry, one set of sites model) [3]	ΔH [4]	N [5]	ΔS [5]
BCvifVF: EloB (1-118) / EloC (17-112) / vif (95-192) (A123V, L124F) (from UniProt P69723 95-192)	0.901	0.43	0.451	–	–	–
BCvifSS: EloB (1-118) / EloC (17-112) / vif (95-192) (A123S, L124S) (from UniProt P69723 95-192)	–	1.01	–	-7.28 kcal/mol	–	–
BCvif95-192: EloB (1-118) / EloC (17-112) / Vif (95-192) (from UniProt P69723 95-192)	–	–	–	-5.24 kcal/mol	1.01	11.1

— patent US20120271036A1
